These results are taken from paper doi:10.1101/2025.08.26.672026 (bioRxiv, 2025).

The data set concerns the molecule itself. Description: negative stain EM.

B1: RPS2^ΔN26 (domain or fragment, Arabidopsis thaliana, UniProt Q42484 27-909, looked up)
chain: HKTDLRQAITDLETAIGDLKAIRDDLTLRIQQDGLEGRSCSNRAREWLSAVQVTETKTALLLVRFRRREQRTRMRRRYLSCFGCADYKLCKKVSAILKSIGELRERSEAIKTDGGSIQVTCREIPIKSVVGNTTMMEQVLEFLSEEEERGIIGVYGPGGVGKTTLMQSINNELITKGHQYDVLIWVQMSREFGECTIQQAVGARLGLSWDEKETGENRALKIYRALRQKRFLLLLDDVWEEIDLEKTGVPRPDRENKCKVMFTTRSIALCNNMGAEYKLRVEFLEKKHAWELFCSKVWRKDLLESSSIRRLAEIIVSKCGGLPLALITLGGAMAHRETEEEWIHASEVLTRFPAEMKGMNYVFALLKFSYDNLESDLLRSCFLYCALFPEEHSIEIEQLVEYWVGEGFLTSSHGVNTIYKGYFLIGDLKAACLLETGDEKTQVKMHNVVRSFALWMASEQGTYKELILVEPSMGHTEAPKAENWRQALVISLLDNRIQTLPEKLICPKLTTLMLQQNSSLKKIPTGFFMHMPVLRVLDLSFTSITEIPLSIKYLVELYHLSMSGTKISVLPQELGNLRKLKHLDLQRTQFLQTIPRDAICWLSKLEVLNLYYSYAGWELQSFGEDEAEELGFADLEYLENLTTLGITVLSLETLKTLFEFGALHKHIQHLHVEECNELLYFNLPSLTNHGRNLRRLSIKSCHDLEYLVTPADFENDWLPSLEVLTLHSLHNLTRVWGNSVSQDCLRNIRCINISHCNKLKNVSWVQKLPKLEVIELFDCREIEELISEHESPSVEDPTLFPSLKTLRTRDLPELNSILPSRFSFQKVETLVITNCPRVKKLPFQERRTQMNLPTVYCEEKWWKALEKDQPNEELCYLPRFVPN
In the case of B1, the “stoichiometry N” value is 8.
